Measured values from US7732133B2, “Screening methods for biologically active ligands” (Chugai Seiyaku Kabushiki Kaisha, priority 2000, dated 2010).

Target: T1, chimeric CNTF receptor (human CNTF receptor expressed in chimeric LIF receptor cell line LIG) in Ba/F3 cell line CNG (Homo sapiens, UniProt P26992+P40189+P42702)
T1 construct: from the 1st to the 372nd amino acid residues; expressed in transfected cells; host or cells: Ba/F3-derived cell line LIG transfected with pCV-CNTFR, clone CNG#203 = CNG
Assay: Growth response of chimeric CNTF receptor-expressing Ba/F3 cell line CNG (WST-8)
Assay type: cell-based
Conditions: 72 hours culture, WST-8 absorbance
From the text: Human CNTF receptor (from the 1st to the 372nd amino acid residues; Davis, S. et al. (1991) Science, 253, 59-63) cDNA was cloned downstream of the HEF1α promoter of a mammalian expression vector, pCV, to construct human CNTF receptor (CNTFR) expression vector, pCV-CNTFR. pCV-CNTFR was linearized with Pvu I (Takara Shuzo), extracted with phenol and chloroform, and purified by ethanol precipitation.
The linearized expression gene vector was introduced into the chimeric LIF receptor-expressing cell line LIG (see section 1-13) using an electroporation apparatus (Gene Pulser: Bio Rad). The LIG cells were washed twice with Dulbecco's PBS (hereinafter referred to as PBS), and then were suspended in PBS to give a cell density of about 1×10^7 cells/mL. […]
The cells were washed twice with Media A, and were suspended in Media A to give a cell density of 5×10^4 cells/mL. […] After the culture, 10 μL/well WST-8 reagent (Cell Count Reagent SF; Nacalai Tesque) was added, and pre-reaction absorbance at a measurement wavelength of 450 nm and a control wavelength of 655 nm was measured using microplate reader (Model 3550, Bio Rad). The plate was incubated for two hours in a CO2 incubator (CO2 concentration, 5%), and post-reaction absorbance was measured as above. […]

T1 sequence (P26992 23-372, change not shown): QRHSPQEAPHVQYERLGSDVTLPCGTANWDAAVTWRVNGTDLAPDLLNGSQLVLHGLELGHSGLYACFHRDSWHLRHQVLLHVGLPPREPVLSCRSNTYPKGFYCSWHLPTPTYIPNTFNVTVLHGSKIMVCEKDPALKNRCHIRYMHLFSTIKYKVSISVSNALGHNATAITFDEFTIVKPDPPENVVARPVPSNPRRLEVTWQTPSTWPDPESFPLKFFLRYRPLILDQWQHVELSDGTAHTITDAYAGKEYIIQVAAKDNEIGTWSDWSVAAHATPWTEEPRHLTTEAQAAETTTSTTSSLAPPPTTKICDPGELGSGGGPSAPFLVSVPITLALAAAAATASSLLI
T1 sequence (P42702 45-833, change not shown): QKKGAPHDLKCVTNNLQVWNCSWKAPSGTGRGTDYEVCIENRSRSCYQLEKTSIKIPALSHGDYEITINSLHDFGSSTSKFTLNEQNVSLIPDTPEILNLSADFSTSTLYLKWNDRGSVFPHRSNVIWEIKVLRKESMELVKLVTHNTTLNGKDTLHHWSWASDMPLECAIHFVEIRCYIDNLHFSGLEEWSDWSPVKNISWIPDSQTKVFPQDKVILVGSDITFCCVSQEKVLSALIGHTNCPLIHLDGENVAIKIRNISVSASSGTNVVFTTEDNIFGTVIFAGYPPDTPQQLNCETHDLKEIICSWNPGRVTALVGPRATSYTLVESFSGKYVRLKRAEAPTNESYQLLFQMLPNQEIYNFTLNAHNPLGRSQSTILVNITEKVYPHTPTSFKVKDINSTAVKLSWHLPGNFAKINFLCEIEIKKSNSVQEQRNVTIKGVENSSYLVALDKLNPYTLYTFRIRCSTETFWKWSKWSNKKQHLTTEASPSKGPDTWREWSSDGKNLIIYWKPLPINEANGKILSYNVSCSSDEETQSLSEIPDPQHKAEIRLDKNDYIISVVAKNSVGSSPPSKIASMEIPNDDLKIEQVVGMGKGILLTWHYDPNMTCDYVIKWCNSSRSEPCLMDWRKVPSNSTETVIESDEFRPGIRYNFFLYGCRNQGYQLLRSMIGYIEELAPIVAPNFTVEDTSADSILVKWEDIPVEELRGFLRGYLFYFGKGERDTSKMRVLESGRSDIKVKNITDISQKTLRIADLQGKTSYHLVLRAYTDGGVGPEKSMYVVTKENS
T1 sequence (P40189 23-619, change not shown): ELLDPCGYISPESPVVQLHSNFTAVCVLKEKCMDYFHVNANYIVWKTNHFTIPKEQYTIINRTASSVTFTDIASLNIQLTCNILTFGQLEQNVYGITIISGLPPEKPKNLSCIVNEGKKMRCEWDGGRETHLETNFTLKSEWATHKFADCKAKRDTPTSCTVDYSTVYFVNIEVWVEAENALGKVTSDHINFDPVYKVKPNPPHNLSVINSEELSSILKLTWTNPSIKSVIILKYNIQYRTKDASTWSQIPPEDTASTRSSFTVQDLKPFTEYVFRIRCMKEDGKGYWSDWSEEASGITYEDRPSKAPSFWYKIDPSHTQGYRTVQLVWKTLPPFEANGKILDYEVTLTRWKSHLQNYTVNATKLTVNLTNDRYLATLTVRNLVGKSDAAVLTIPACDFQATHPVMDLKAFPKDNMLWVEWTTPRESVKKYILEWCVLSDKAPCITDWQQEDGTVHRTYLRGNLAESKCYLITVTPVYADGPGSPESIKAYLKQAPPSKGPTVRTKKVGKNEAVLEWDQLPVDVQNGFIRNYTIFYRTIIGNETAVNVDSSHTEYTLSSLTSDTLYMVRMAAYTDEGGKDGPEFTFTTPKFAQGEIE
T1 sequence (P40223 627-837 partner limits assumed): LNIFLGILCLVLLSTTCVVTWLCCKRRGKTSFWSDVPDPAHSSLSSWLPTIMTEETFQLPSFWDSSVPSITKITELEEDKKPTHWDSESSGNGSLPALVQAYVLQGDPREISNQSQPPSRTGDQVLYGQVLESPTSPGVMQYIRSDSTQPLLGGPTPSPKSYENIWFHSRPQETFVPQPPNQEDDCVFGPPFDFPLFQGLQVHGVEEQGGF

B1: human CNTF: human ciliary neurotrophic factor (Genzyme) (protein, UniProt P26441 1-200, looked up)
Ciliary neurotrophic factor: MAFTEHSPLTPHRRDLCSRSIWLARKIRSDLTALTESYVKHQGLNKNINLDSADGMPVASTDQWSELTEAERLQENLQAYRTFHVLLARLLEDQQVHFTPTEGDFHQAIHTLLLQVAAFAYQIEELMILLEYKIPRNEADGMPINVGDGGLFEKKLWGLKVLQELSQWTVRSIHDLRFISSHQTGIPARGSHYIANNKKM
concentration at which an evident growth reaction was observed: ≥ 0.3 ng/mL
